{
  "source": "patent US20230121197A1",
  "about": "“ANTIBODIES SPECIFICALLY BINDING THE CARBOXYMETHYLATED CATALYTIC SUBUNIT OF PROTEIN PHOSPHATASE 2A” (Medizinische Universität Wien, priority 2020, published 2023)",
  "key": {"[1]": {"molecular_target": "PP2Ac C-terminal peptide pT304-meL309, ac-HVTRRpTPDYFL-CH3 (human)", "experiment": "ELISA, peptide dilution series, supernatant 1:50"}, "[2]": {"system": "PP2Ac", "experiment": "Summary of detection properties of C-terminal PP2Ac antibodies (Table 4), PP2Ac", "assay_type": "binding", "description": "Examples of antibodies with a preference for non-methylated PP2Ac are mouse monoclonal antibody 4B7 (Yu (2001), Mol Biol Cell 12, 185-199), mouse monoclonal antibody 1D7 generated by the Ogris lab but also the rabbit monoclonal E155 antibody from Abeam and the mouse monoclonal F-8 from SCBT that were thought to be specific for pTyr^307.\nE155 was tested for its specificity to phosphorylation and methylation on the carboxy-terminus of PP2A on 6 different undecapeptides by ELISA (FIGS. 18 and 19). Flat-bottom Nunc-Immuno Medisorp 96-well ELISA plates (Thermo; 467320) were coated o/n at 4° C. with 50 μl of either a peptide of the sequence ac-HVTRRTPDYFL-OH (L309) (SEQ ID NO:18) at a concentration of 2 μg/ml, a peptide of the sequence ac-HVTRRTPDYFL-CH3 (meL309) (SEQ ID NO:18) at a concentration of 2 μg/ml in TBS (137 mM NaCl (AppliChem, #131659, 2.7 mM KCl (AppliChem, #131494.), 24.8 mM Tris (AppliChem, #A1086), pH 7.4 with HCl), with a peptide of the sequence ac-HVTRRpTPDYFL-OH (pT304-L309) (SEQ ID NO:116) at a concentration of 2 μg/ml in TBS, or with a peptide of the sequence ac-HVTRRpTPDYFL-CH3 (pT304-meL309) (SEQ ID NO:116) at a concentration of 2 μg/ml in TBS (FIG. 18). The wells were washed once with TBS, blocked with 200 μl of 2% bovine serum albumin (BSA) (Sigma, A9647) in TBS for 1 hour at RT and washed again once with TBS. […] Bound antibodies were detected colorimetrically by addition of 50 μl of 33 μg/ml […] (TMB) (Sigma, T2885) in 0.1 M sodium acetate pH 6.0 and 0.01% H2O2 (Sigma, H1009). The colorimetric reaction was stopped after 10 min by addition of 50 μl 0.5 M H2SO4, and absorbance was measured at 450 nm and 560 nm with a Perkin Elmer VICTOR® Nivo™ microplate reader. The results from 560 nm read were subtracted from the 450 nm read.\nIn a further experiment, flat-bottom Nunc-Immuno Medisorp 96-well ELISA plates (Thermo; 467320) were coated o/n at 4° C. with 50 μl of either a peptide of the sequence ac-HVTRRTPDYFL-OH (L309) (SEQ ID NO:18) at a concentration of 2 μg/ml in TBS (137 mM NaCl (AppliChem, #131659, 2.7 mM KCl (AppliChem, #131494.), 24.8 mM Tris (AppliChem, #A1086), pH 7.4 with HCl), a peptide of the sequence ac-HVTRRTPDYFL-CH3 (meL309) (SEQ ID NO:18) at a concentration of 2 μg/ml in TBS (137 mM NaCl (AppliChem, #131659.1214, 2.7 mM KCl (AppliChem, #131494.1211) pH 7.4 with HCl), with a peptide of the sequence ac-HVTRRTPDpYFL-OH (pY307-L309) (SEQ ID NO:117) at a concentration of 2 μg/ml in TBS or with a peptide of the sequence ac-HVTRRTPDpYFL-CH3 (pY307-meL309) (SEQ ID NO:117) at a concentration of 2 μg/ml in TBS (FIG. 19). […] The colorimetric reaction was stopped after 10 min by addition of 50 μl 0.5 M H2SO4, and absorbance was measured at 450 nm and 570 nm with a Biotek Synergy™ H1 microplate reader. […]"}, "[3]": {"conditions": "antibodies screened for binding methylated PP2Ac"}},
  "data": [
    {"molecule": "7C10-C5 monoclonal antibody (antibody, V domains shown, Used as hybridoma culture supernatant (ELISA, Western blot, IHC) or at 50 µg/mL (SPR); also called 7C10 X63; clone 7C10-C5) VH: DVQLQESGPGLVKPSQSLSLTCSVTGYSITSGYYWNWIRQFPGNKLEWMGYISYDGSNNYNPSLKNRISITRDTSKNQFFLKLNSVTTEDTATYYCAGRFAYWGQGTLVTVSA VL: DVLMTQTPLSLPVSLGDQASISCRSSQSIVHSNGNTYLEWYLQKPGQSPKLLIYKVSNRFSGVPDRFSGSGSGTDFTLKINRVEAEDLGVYYCFQGSHVPWTFGGGTKLEIK", "values": [
      {"measurement": "fold detection difference against the carboxymethylated peptide (meL309) at lower peptide concentrations", "setting": "[1]", "result": 4, "unit": "fold"}
    ]},
    {"molecule": "7C10-C5: α-carboxymethylation specific mouse monoclonal IgG1 antibody from single clone hybridoma 7C10-C5 (DSM ACC3350) (antibody, Amino acid sequence of the recombinant 7C10-C5 heavy chain; Amino acid sequence of the recombinant 7C10-C5 light chain) heavy: MYRMQLLSCIALSLALVTNSDVQLQESGPGLVKPSQSLSLTCSVTGYSITSGYYWNWIRQFPGNKLEWMGYISYDGSNNYNPSLKNRISITRDTSKNQFFLKLNSVTTEDTATYYCAGRFAYWGQGTLVTVSAAKTTAPSVYPLAPVCGDTTGSSVTLGCLVKGYFPEPVTLTWNSGSLSSGVHTFPAVLQSDLYTLSSSVTVTSSTWPSQSITCNVAHPASSTKVDKKIEPRGPTIKPCPPCKCPAPNLLGGPSVFIFPPKIKDVLMISLSPIVTCVVVDVSEDDPDVQISWFVNNVEVHTAQTQTHREDYNSTLRVVSALPIQHQDWMSGKEFKCKVNNKDLPAPIERTISKPKGSVRAPQVYVLPPPEEEMTKKQVTLTCMVTDFMPEDIYVEWTNNGKTELNYKNTEPVLDSDGSYFMYSKLRVEKKNWVERNSYSCSVVHEGLHNHHTTKSFSRTPGK light: MDMRVPAQLLGLLLLWLSGARCDVLMTQTPLSLPVSLGDQASISCRSSQSIVHSNGNTYLEWYLQKPGQSPKLLIYKVSNRFSGVPDRFSGSGSGTDFTLKINRVEAEDLGVYYCFQGSHVPWTFGGGTKLEIKADAAPTVSIFPPSSEQLTSGGASVVCFLNNFYPKDINVKWKIDGSERQNGVLNSWTDQDSKDSTYSMSSTLTLTKDEYERHNSYTCEATHKTSTSPIVKSFNRNEC", "values": [
      {"measurement": "meLeu^309", "setting": "[2]; PP2Ac carboxymethylated at Leu309", "result": "*** (*** 80-100%)"},
      {"measurement": "pThr^304 meLeu^309", "setting": "[2]; [3]", "result": "**** (**** >100%)"},
      {"measurement": "pTyr^307 meLeu^309", "setting": "[2]; [3]", "result": "*** (*** 80-100%)"},
      {"measurement": "unmodified", "setting": "[2]; unmodified PP2Ac C-terminus", "result": "— (— <15%)"}
    ]}
  ]
}
